T1: AP2-HC D1 (Plasmodium falciparum, UniProt Q8IKR9 1316-1374)
T1 sequence: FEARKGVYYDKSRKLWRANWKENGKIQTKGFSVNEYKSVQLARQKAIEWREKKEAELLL

B1: CACACA_site7567 (dsDNA)
DNA 1: TGCAACAAAATAAACACACACACACTAACACAAAAA
DNA 2: TTTTTGTGTTAGTGTGTGTGTGTTTATTTTGTTGCA
B2: CACACA_site8328 (dsDNA)
DNA 1: TTGGGTCAAACATAAACACACACAAAAAGAAAAAAT
DNA 2: ATTTTTTCTTTTTGTGTGTGTTTATGTTTGACCCAA
B3: CACACA_site336 (dsDNA)
DNA 1: GGAGCACCCAGACACACACACACATATATATATATA
DNA 2: TATATATATATATGTGTGTGTGTGTCTGGGTGCTCC
B4: CACACA_site5428 (dsDNA)
DNA 1: AAAAGATAATTATGCACACACACACCCAGACACAAC
DNA 2: GTTGTGTCTGGGTGTGTGTGTGCATAATTATCTTTT
B5: CACACA_site3056 (dsDNA)
DNA 1: AGCTCTTGTCATTTTGCACACACACCCGTATAGGTT
DNA 2: AACCTATACGGGTGTGTGTGCAAAATGACAAGAGCT
B6: CACACA_site118 (dsDNA)
DNA 1: ATATATATATATTACACACACACAAAAAAAATAAAG
DNA 2: CTTTATTTTTTTTGTGTGTGTGTAATATATATATAT
B7: CACACA_site4573 (dsDNA)
DNA 1: TATGCAAGGAACCACACACACACACCGAAATGTATA
DNA 2: TATACATTTCGGTGTGTGTGTGTGGTTCCTTGCATA
B8: CACACA_site4891 (dsDNA)
DNA 1: TAATAAATAGGACACACACACATATATATATATTAT
DNA 2: ATAATATATATATATGTGTGTGTGTCCTATTTATTA
B9: CACACA_site803 (dsDNA)
DNA 1: AAAAAAAACAAATACACACGCACACCGAAAAAAAAA
DNA 2: TTTTTTTTTCGGTGTGCGTGTGTATTTGTTTTTTTT
B10: CACACA_site5780 (dsDNA)
DNA 1: ATAAATTAAAAACACACACACATCTGGATACCCCTA
DNA 2: TAGGGGTATCCAGATGTGTGTGTGTTTTTAATTTAT
B11: CACACA_site4006 (dsDNA)
DNA 1: ATAAGGAAGGGATGCACACAAAAGGGTACATAAGAA
DNA 2: TTCTTATGTACCCTTTTGTGTGCATCCCTTCCTTAT
B12: CACACA_site1963 (dsDNA)
DNA 1: AACTTGTATATATACACACACACACTGTCTTTTTTT
DNA 2: AAAAAAAGACAGTGTGTGTGTGTATATATACAAGTT
B13: CACACA_site1725 (dsDNA)
DNA 1: CATATATACGCATACACACACACACCCACACCCACA
DNA 2: TGTGGGTGTGGGTGTGTGTGTGTATGCGTATATATG
B14: CACACA_site8823 (dsDNA)
DNA 1: TAATTATGCCAACACACACACACACCCAACTAAAAA
DNA 2: TTTTTAGTTGGGTGTGTGTGTGTGTTGGCATAATTA
B15: CACACA_site498 (dsDNA)
DNA 1: TACACCCACCAACACACACACACACCCAAAAAAAAA
DNA 2: TTTTTTTTTGGGTGTGTGTGTGTGTTGGTGGGTGTA
B16: CACACA_site8023 (dsDNA)
DNA 1: CCTGAACACATACATACACACACACTAATAAAAAAA
DNA 2: TTTTTTTATTAGTGTGTGTGTATGTATGTGTTCAGG
B17: CACACA_site270 (dsDNA)
DNA 1: AATACTTATTATGAAACACACACCAAAACTACATAA
DNA 2: TTATGTAGTTTTGGTGTGTGTTTCATAATAAGTATT
B18: CACACA_site4465 (dsDNA)
DNA 1: AAATAATATAAATACACACACACATATATAAATACA
DNA 2: TGTATTTATATATGTGTGTGTGTATTTATATTATTT
B19: CACACA_site2432 (dsDNA)
DNA 1: CAAACCCACCAACACACACACACAAAAATGATTAAA
DNA 2: TTTAATCATTTTTGTGTGTGTGTGTTGGTGGGTTTG
B20: CACACA_site6216 (dsDNA)
DNA 1: AAAAAAAAAAGACACACACACACACGGAGATATATA
DNA 2: TATATATCTCCGTGTGTGTGTGTGTCTTTTTTTTTT
B21: CACACA_site1585 (dsDNA)
DNA 1: AAAATAAAAAAAAACACACACATACAAGCATATATA
DNA 2: TATATATGCTTGTATGTGTGTGTTTTTTTTTATTTT
B22: CACACA_site8113 (dsDNA)
DNA 1: CACGCATACAGACACACACACACACCGATATATATA
DNA 2: TATATATATCGGTGTGTGTGTGTGTCTGTATGCGTG
B23: CACACA_site6334 (dsDNA)
DNA 1: AAAAAAAAAAGACACACACACAAATACAAATACATA
DNA 2: TATGTATTTGTATTTGTGTGTGTGTCTTTTTTTTTT
B24: CACACA_site8256 (dsDNA)
DNA 1: AAATAAAGCACACCGACACACACATATATATATATA
DNA 2: TATATATATATATGTGTGTGTCGGTGTGCTTTATTT
B25: CACACA_site8770 (dsDNA)
DNA 1: AACAAACACAGACACACACACACACTAATATGATTA
DNA 2: TAATCATATTAGTGTGTGTGTGTGTCTGTGTTTGTT
B26: CACACA_site7659 (dsDNA)
DNA 1: AGAATAAAAAGGAACACACACACACGCATATAAATA
DNA 2: TATTTATATGCGTGTGTGTGTGTTCCTTTTTATTCT
B27: CACACA_site1505 (dsDNA)
DNA 1: TATATATATATATACACACACACAAAAAAAAAAAAA
DNA 2: TTTTTTTTTTTTTGTGTGTGTGTATATATATATATA
B28: CACACA_site6373 (dsDNA)
DNA 1: AACATACATAGACACACACACACACGCACACGCACA
DNA 2: TGTGCGTGTGCGTGTGTGTGTGTGTCTATGTATGTT
B29: CACACA_site758 (dsDNA)
DNA 1: TTAAACTTGAAACACACACACACACCCATATAAAAA
DNA 2: TTTTTATATGGGTGTGTGTGTGTGTTTCAAGTTTAA
B30: CACACA_site1447 (dsDNA)
DNA 1: AAAAAAAAAAAACACACACACACACCCACAAAATAT
DNA 2: ATATTTTGTGGGTGTGTGTGTGTGTTTTTTTTTTTT
B31: CACACA_site8795 (dsDNA)
DNA 1: CTTATATATTGCCCTTCACACACACCCATATATATA
DNA 2: TATATATATGGGTGTGTGTGAAGGGCAATATATAAG
B32: CACACA_site2860 (dsDNA)
DNA 1: AAAAAAAAAAAAAACACACACACACCCATACACATA
DNA 2: TATGTGTATGGGTGTGTGTGTGTTTTTTTTTTTTTT

target: T1, AP2-HC D1; assay: gcPBM; about 25 ug protein; PBS, 1% milk, 0.2 mg/ml BSA, salmon testes DNA, 0.03% Triton X-100; conditions: tags: N-terminal GST (pGEX-4T-1), kept; label: surface-attached array probe

**Q.** B1 was tested. Which binding signal did it give?
**A.** 10.5 ln median PBM intensity, better of two orientations

**Q.** For B2, which binding signal is on record?
**A.** 10.7 ln median PBM intensity, better of two orientations

**Q.** How did the binding signal turn out when B3 was run?
**A.** 10.6 ln median PBM intensity, better of two orientations

**Q.** How did the binding signal turn out when B4 was run?
**A.** 11.7 ln median PBM intensity, better of two orientations

**Q.** With B5 as the binder, how does the binding signal read?
**A.** 11 ln median PBM intensity, better of two orientations

**Q.** Which binding signal does the source give for B6 here?
**A.** 11.7 ln median PBM intensity, better of two orientations

**Q.** With B7 as the binder, how does the binding signal read?
**A.** 10.6 ln median PBM intensity, better of two orientations

**Q.** With B8 as the binder, how does the binding signal read?
**A.** 10.5 ln median PBM intensity, better of two orientations

**Q.** With B9 as the binder, how does the binding signal read?
**A.** 10.9 ln median PBM intensity, better of two orientations

**Q.** B10 was tested. Which binding signal did it give?
**A.** 11.5 ln median PBM intensity, better of two orientations

**Q.** For B11, which binding signal is on record?
**A.** 10.5 ln median PBM intensity, better of two orientations

**Q.** For B12, which binding signal is on record?
**A.** 10.5 ln median PBM intensity, better of two orientations

**Q.** With B13 as the binder, how does the binding signal read?
**A.** 10.7 ln median PBM intensity, better of two orientations

**Q.** Which binding signal does the source give for B14 here?
**A.** 10.8 ln median PBM intensity, better of two orientations

**Q.** How did the binding signal turn out when B15 was run?
**A.** 10.5 ln median PBM intensity, better of two orientations

**Q.** How did the binding signal turn out when B16 was run?
**A.** 11.3 ln median PBM intensity, better of two orientations

**Q.** With B17 as the binder, how does the binding signal read?
**A.** 10.7 ln median PBM intensity, better of two orientations

**Q.** How did the binding signal turn out when B18 was run?
**A.** 11.7 ln median PBM intensity, better of two orientations

**Q.** How did the binding signal turn out when B19 was run?
**A.** 10.5 ln median PBM intensity, better of two orientations

**Q.** Which binding signal does the source give for B20 here?
**A.** 11.7 ln median PBM intensity, better of two orientations

**Q.** With B21 as the binder, how does the binding signal read?
**A.** 11.2 ln median PBM intensity, better of two orientations

**Q.** B22 was tested. Which binding signal did it give?
**A.** 11.1 ln median PBM intensity, better of two orientations

**Q.** Which binding signal does the source give for B23 here?
**A.** 10.9 ln median PBM intensity, better of two orientations

**Q.** Which binding signal does the source give for B24 here?
**A.** 10.4 ln median PBM intensity, better of two orientations

**Q.** How did the binding signal turn out when B25 was run?
**A.** 11.7 ln median PBM intensity, better of two orientations

**Q.** For B26, which binding signal is on record?
**A.** 11.7 ln median PBM intensity, better of two orientations

**Q.** For B27, which binding signal is on record?
**A.** 11.3 ln median PBM intensity, better of two orientations

**Q.** For B28, which binding signal is on record?
**A.** 11 ln median PBM intensity, better of two orientations

**Q.** B29 was tested. Which binding signal did it give?
**A.** 11.7 ln median PBM intensity, better of two orientations

**Q.** With B30 as the binder, how does the binding signal read?
**A.** 11.7 ln median PBM intensity, better of two orientations

**Q.** With B31 as the binder, how does the binding signal read?
**A.** 10.6 ln median PBM intensity, better of two orientations

**Q.** How did the binding signal turn out when B32 was run?
**A.** 11.7 ln median PBM intensity, better of two orientations

— PMC11417369, “DNA sequence and chromatin differentiate sequence-specific transcription factor binding in the human malaria parasite Plasmodium falciparum”
